The source of these data is paper PMC8051608, “Overexpression of GmMYB14 improves high‐density yield and drought tolerance of soybean through regulating plant architecture mediated by the brassinosteroid pathway”.

The target in the data set is T1, GmMYB14 (Glycine max cv. Tianlong No. 1, UniProt K7MYP5 1-291).
T1 sequence: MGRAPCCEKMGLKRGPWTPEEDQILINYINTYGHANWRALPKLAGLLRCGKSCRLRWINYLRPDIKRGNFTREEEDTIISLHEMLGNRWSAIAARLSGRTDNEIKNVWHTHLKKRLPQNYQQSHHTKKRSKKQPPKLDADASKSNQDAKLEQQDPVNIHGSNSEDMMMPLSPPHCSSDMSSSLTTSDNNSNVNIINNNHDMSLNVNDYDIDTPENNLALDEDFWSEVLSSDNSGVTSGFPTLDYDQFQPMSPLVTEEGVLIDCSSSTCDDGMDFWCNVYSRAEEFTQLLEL
Kind of data set: EMSA; 100x cold probe competition tested; EMSA Kit (Thermo Fisher), non-denaturing 6% polyacrylamide gel, streptavidin-HRP/ECL detection; buffer, salt, pH and temperature not stated. The note with it: protein: recombinant; tags: His (pCzn1-His vector); label: biotin; annealed complementary oligos. On the technique in general: Mobility shift assays separate free from complexed probe on a gel.

B1: GmBEN1 promoter AC element 1 probe (30 bp) (dsDNA)
DNA 1: TAATACACCAAGCCACCTACCTTGTCTCTTT
DNA 2: AAAGAGACAAGGTAGGTGGCTTGGTGTATTA
In the case of B1, the binding result is recorded as “binds”.
